The source of these data is IntAct's records for PubMed 31515488.

First the molecules themselves.
B1: U3 small nucleolar RNA-associated protein 14 homolog A (Homo sapiens), Q9BVJ6 (parent)
chain: MTANRLAESLLALSQQEELADLPKDYLLSESEDEGDNDGERKHQKLLEAISSLDGKNRRKLAERSEASLKVSEFNVSSEGSGEKLVLADLLEPVKTSSSLATVKKQLSRVKSKKTVELPLNKEEIERIHREVAFNKTAQVLSKWDPVVLKNRQAEQLVFPLEKEEPAIAPIEHVLSGWKARTPLEQEIFNLLHKNKQPVTDPLLTPVEKASLRAMSLEEAKMRRAELQRARALQSYYEAKARREKKIKSKKYHKVVKKGKAKKALKEFEQLRKVNPAAALEELEKIEKARMMERMSLKHQNSGKWAKSKAIMAKYDLEARQAMQEQLSKNKELTQKLQVASESEEEEGGTEDVEELLVPDVVNEVQMNADGPNPWMLRSCTSDTKEAATQEDPEQLPELEAHGVSESEGEERPVAEEEILLREFEERRSLRKRSELSQDAEPAGSQETKDSGSQEVLSELRVLSQKLKENHQSRKQKASSEGTIPQVQREEPAPEEEEPLLLQRPERVQTLEELEELGKEECFQNKELPRPVLEGQQSERTPNNRPDAPKEKKKKEQMIDLQNLLTTQSPSVKSLAVPTIEELEDEEERNHRQMIKEAFAGDDVIRDFLKEKREAVEASKPKDVDLTLPGWGEWGGVGLKPSAKKRRRFLIKAPEGPPRKDKNLPNVIINEKRNIHAAAHQVRVLPYPFTHHWQFERTIQTPIGSTWNTQRAFQKLTTPKVVTKPGHIINPIKAEDVGYRSSSRSDLSVIQRNPKRITTRHKKQLKKCSVD
B2: Stabilizer of axonemal microtubules 1 (Homo sapiens), Q8IYX7 (parent)
chain: MKTKCICELCSCGRHHCPHLPTKIYDKTEKPCLLSEYTENYPFYHSYLPRESFKPRREYQKGPIPMEGLTTSRRDFGPHKVAPVKVHQYDQFVPSEENMDLLTTYKKDYNPYPVCRVDPIKPRDSKYPCSDKMECLPTYKADYLPWNQPRREPLRLEHKYQPASVRFDNRTTHQDDYPIKGLVKTISCKPLAMPKLCNIPLEDVTNYKMSYVAHPVEKRFVHEAEKFRPCEIPFESLTTQKQSYRGLMGEPAKSLKPLARPPGLDMPFCNTTEFRDKYQAWPMPRMFSKAPITYVPPEDRMDLLTTVQAHYTCPKGAPAQSCRPALQIKKCGRFEGSSTTKDDYKQWSSMRTEPVKPVPQLDLPTEPLDCLTTTRAHYVPHLPINTKSCKPHWSGPRGNVPVESQTTYTISFTPKEMGRCLASYPEPPGYTFEEVDALGHRIYKPVSQAGSQQSSHLSVDDSENPNQRELEVLA
B3: Cyclic AMP-dependent transcription factor ATF-4 (Homo sapiens), P18848 (parent)
chain: MTEMSFLSSEVLVGDLMSPFDQSGLGAEESLGLLDDYLEVAKHFKPHGFSSDKAKAGSSEWLAVDGLVSPSNNSKEDAFSGTDWMLEKMDLKEFDLDALLGIDDLETMPDDLLTTLDDTCDLFAPLVQETNKQPPQTVNPIGHLPESLTKPDQVAPFTFLQPLPLSPGVLSSTPDHSFSLELGSEVDITEGDRKPDYTAYVAMIPQCIKEEDTPSDNDSGICMSPESYLGSPQHSPSTRGSPNRSLPSPGVLCGSARPKPYDPPGEKMVAAKVKGEKLDKKLKKMEQNKTAATRYRQKKRAEQEALTGECKELEKKNEALKERADSLAKEIQYLKDLIEEVRKARGKKRVP

The first experiment covers variants of B1. Particulars: with ldoc1_human LDOC1, O95751.
Target sequence in this assay (O95751 whole entry): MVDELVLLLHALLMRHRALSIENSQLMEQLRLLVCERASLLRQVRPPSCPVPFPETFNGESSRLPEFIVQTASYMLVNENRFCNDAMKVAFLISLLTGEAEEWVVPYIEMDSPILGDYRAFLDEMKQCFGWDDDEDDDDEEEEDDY
In the case of V487A, the “effect of a mutation on the interaction” value is recorded as “with no effect”.

Another experiment covers variants of B2. Conditions: with rbtn2_human LMO2, P25791.
rbtn2_human LMO2, P25791, sequence (P25791 whole entry): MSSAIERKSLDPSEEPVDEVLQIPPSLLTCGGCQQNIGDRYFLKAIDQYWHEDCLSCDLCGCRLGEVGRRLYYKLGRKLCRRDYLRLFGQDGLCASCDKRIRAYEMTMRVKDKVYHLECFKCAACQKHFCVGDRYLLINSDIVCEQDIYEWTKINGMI
With D118G, the “effect of a mutation on the interaction” value is “with no effect”.
N464K: the “effect of a mutation on the interaction” value is reported as “disrupting interaction strength”.

In another experiment the parent is B2. Conditions: with fhl3_human FHL3, Q13643.
fhl3_human FHL3, Q13643, sequence (Q13643 whole entry): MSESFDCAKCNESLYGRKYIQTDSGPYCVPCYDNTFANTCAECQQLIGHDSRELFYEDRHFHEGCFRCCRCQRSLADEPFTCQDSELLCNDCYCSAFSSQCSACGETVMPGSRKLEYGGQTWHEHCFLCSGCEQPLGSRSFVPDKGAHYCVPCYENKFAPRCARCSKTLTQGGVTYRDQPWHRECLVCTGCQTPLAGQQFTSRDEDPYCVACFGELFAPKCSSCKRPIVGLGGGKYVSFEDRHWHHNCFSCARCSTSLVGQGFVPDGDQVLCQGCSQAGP
Consider D118G, for which the “effect of a mutation on the interaction” value was “with no effect”.
Consider N464K, for which the “effect of a mutation on the interaction” value is recorded as “with no effect”.

The variants in another experiment derive from B3. Particulars: with ldoc1_human LDOC1, O95751.
Target sequence in this assay (O95751 whole entry): as the sequence (O95751 whole entry) above
In the case of A324V, the “effect of a mutation on the interaction” value is given as “with no effect”.
Still for that read-out and setting: the result for T137S reads “with no effect”.

In the next experiment the parent is B3. Conditions: with cc106_human CCDC106, Q9BWC9.
cc106_human CCDC106, Q9BWC9, sequence (Q9BWC9 whole entry): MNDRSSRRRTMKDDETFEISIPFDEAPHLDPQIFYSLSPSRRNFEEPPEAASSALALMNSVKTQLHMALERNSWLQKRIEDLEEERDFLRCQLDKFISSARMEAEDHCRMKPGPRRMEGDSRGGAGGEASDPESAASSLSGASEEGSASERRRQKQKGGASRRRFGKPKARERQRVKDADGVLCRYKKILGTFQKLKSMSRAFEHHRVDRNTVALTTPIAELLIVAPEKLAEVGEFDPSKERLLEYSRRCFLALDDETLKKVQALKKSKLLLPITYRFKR
Take A324V: the “effect of a mutation on the interaction” value is recorded as “with no effect”.

The variants in another experiment derive from B3. Particulars: with fbw1a_human BTRC.
In the case of A324V, the “effect of a mutation on the interaction” value is given as “with no effect”.
Still for that read-out and setting: in the case of T137S it was “with no effect”.

In a further experiment the parent is B3. Particulars: with cc106_human CCDC106, Q9BWC9. The source holds these as a separate data set.
Turning to A324V, the “effect of a mutation on the interaction” value is reported as “disrupting interaction strength”.

Variants of B3 are the subject of a further experiment. Particulars: with tthy_human TTR.
With T137S, the “effect of a mutation on the interaction” value is recorded as “with no effect”.
